From patent US20060115897A1 come the findings set out here.

The assay concerns the target C4b (UniProt P0C0L4). Nature of the assay: cell-based or functional assay.

Chain of C4b (P0C0L4 20-1744): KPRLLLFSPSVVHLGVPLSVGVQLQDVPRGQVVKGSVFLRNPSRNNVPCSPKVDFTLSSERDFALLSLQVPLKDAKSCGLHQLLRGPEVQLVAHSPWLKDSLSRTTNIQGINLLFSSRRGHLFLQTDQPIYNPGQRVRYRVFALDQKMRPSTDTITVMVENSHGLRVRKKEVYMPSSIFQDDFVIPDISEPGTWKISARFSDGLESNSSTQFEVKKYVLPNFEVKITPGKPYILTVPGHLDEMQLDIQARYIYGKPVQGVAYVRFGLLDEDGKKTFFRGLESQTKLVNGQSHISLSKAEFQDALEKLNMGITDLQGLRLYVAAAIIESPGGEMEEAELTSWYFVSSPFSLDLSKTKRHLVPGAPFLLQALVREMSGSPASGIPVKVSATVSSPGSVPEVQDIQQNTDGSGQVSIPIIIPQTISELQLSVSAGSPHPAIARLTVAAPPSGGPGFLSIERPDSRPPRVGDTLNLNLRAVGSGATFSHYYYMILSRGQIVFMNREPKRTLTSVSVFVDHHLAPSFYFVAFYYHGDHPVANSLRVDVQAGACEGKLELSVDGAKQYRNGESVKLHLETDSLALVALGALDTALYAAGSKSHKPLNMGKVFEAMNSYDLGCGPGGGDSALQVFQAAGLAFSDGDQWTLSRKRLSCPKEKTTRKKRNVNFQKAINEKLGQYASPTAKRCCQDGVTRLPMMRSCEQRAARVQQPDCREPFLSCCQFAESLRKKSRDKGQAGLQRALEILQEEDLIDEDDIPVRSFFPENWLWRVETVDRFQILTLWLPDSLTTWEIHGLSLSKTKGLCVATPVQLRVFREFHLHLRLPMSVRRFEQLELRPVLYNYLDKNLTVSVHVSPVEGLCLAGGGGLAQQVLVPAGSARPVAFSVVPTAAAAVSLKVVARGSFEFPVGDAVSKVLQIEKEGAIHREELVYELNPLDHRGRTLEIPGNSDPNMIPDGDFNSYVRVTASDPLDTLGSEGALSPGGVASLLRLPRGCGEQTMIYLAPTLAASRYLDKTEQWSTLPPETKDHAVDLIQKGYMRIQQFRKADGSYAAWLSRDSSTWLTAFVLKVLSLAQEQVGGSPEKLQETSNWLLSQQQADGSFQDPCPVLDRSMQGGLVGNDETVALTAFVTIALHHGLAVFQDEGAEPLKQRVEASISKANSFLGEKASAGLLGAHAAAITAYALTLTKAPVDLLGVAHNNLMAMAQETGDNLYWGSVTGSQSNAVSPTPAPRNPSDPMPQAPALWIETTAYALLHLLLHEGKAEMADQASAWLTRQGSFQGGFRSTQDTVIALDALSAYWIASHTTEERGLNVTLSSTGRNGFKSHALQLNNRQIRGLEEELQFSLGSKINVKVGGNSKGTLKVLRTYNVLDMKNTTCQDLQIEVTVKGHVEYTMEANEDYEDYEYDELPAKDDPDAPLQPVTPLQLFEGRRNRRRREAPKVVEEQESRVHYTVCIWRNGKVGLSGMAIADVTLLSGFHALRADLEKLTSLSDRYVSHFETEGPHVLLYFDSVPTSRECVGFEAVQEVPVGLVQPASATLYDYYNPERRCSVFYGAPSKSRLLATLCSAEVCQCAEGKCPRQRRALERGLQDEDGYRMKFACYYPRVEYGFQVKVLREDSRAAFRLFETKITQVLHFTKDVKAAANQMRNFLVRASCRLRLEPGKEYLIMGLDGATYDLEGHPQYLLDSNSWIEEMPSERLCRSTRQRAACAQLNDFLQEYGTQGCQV

The substance “soluble human CR1 (from UniProt P17927 42-1971) (receptor)” had a time to 50% degradation of the C4bα′ chain (cofactor activity for factor I, densitometry) of 15 min.
